Where no end group is shown, it is not given here.
B1: Phage-723 (peptide)
peptide: YCDGHLEQYRAKCL
B2: Phage-700 (peptide)
peptide: YCEGHAREHMAKCL
modifications: cysteine pairing not given here; also: displayed on phage by fusion to pIII, pIII and linker sequence not given here
B3: Phage-706 (peptide)
peptide: YCDGHEAQYMSKCL
modifications: cysteine pairing not given here; also: displayed on phage by fusion to pIII, pIII and linker sequence not given here
B4: Phage-705 (peptide)
peptide: YCDGHMGVYYWKCL
modifications: cysteine pairing not given here; also: displayed on phage by fusion to pIII, pIII and linker sequence not given here
B5: Phage-703 (peptide)
peptide: YCEGHSLEYMGKCL
modifications: cysteine pairing not given here; also: displayed on phage by fusion to pIII, pIII and linker sequence not given here
B6: Phage-707 (peptide)
peptide: YCDGHSHEYMEKCL
modifications: cysteine pairing not given here; also: displayed on phage by fusion to pIII, pIII and linker sequence not given here
B7: Phage-698 (peptide)
peptide: YCAGHLPEYMMKCL
modifications: cysteine pairing not given here; also: displayed on phage by fusion to pIII, pIII and linker sequence not given here
B8: Phage-704 (peptide)
peptide: YCDGHAPEYMEKCL
modifications: cysteine pairing not given here; also: displayed on phage by fusion to pIII, pIII and linker sequence not given here
B9: Phage-701 (peptide)
peptide: YCEGHSPEYMTKCL
modifications: cysteine pairing not given here; also: displayed on phage by fusion to pIII, pIII and linker sequence not given here
B10: Phage-702 (peptide)
peptide: YCEGHSIQYMAKCL
modifications: cysteine pairing not given here; also: displayed on phage by fusion to pIII, pIII and linker sequence not given here
B11: Phage-696 (peptide)
peptide: YCEGHAPQYIAKCL
modifications: cysteine pairing not given here; also: displayed on phage by fusion to pIII, pIII and linker sequence not given here
B12: Phage-708 (peptide)
peptide: YCQGHLPEYMSKCL
modifications: cysteine pairing not given here; also: displayed on phage by fusion to pIII, pIII and linker sequence not given here
B13: Phage-699 (peptide)
peptide: YCEGHRPEYMQKCL
modifications: cysteine pairing not given here; also: displayed on phage by fusion to pIII, pIII and linker sequence not given here
B14: Phage-697 (peptide)
peptide: YCDGHSPMYIGKCL
modifications: cysteine pairing not given here; also: displayed on phage by fusion to pIII, pIII and linker sequence not given here
B15: Phage-693 (peptide)
peptide: YCLGHAPQYIQKCL
B16: Phage-689 (peptide)
peptide: YCEGHAIQYMSKCL
B17: Phage-685 (peptide)
peptide: YCEGHAPEYMYKCL
B18: Phage-688 (peptide)
peptide: YCDGHLIEYMEKCL
B19: Phage-692 (peptide)
peptide: YCDGHFREYMQKCL
B20: Phage-686 (peptide)
peptide: YCDGHLPEYQMKCL
B21: Phage-695 (peptide)
peptide: YCSGHLPEYMSKCL
B22: Phage-694 (peptide)
peptide: YCDGHSSEYMWKCL
B23: Phage-691 (peptide)
peptide: YCEGHSPQYMSKCL
B24: Phage-684 (peptide)
peptide: YCDGHSAQYMHKCL
B25: Phage-690 (peptide)
peptide: YCEGHAPQHMDKCL
B26: Phage-687 (peptide)
peptide: YCDGHASEYMMKCL
B27: Phage-683 (peptide)
peptide: YCDGHVGEYMQKCL
B28: Phage-675 (peptide)
peptide: YCEGHADIYMQKCL
notes: Clonal phage of the Peptide-87 library
B29: Phage-678 (peptide)
peptide: YCEGHLPIYMDKCL
notes: as for B28
B30: Phage-676 (peptide)
peptide: YCEGHSAEYMNKCL
notes: as for B28
B31: Phage-677 (peptide)
peptide: YCDGHAPQYMGKCL
notes: as for B28
B32: Phage-679 (peptide)
peptide: YCDGHAIEYMQKCL
notes: as for B28
B33: Phage-681 (peptide)
peptide: YCQGHMPEYMDKCL
notes: as for B28
B34: Phage-680 (peptide)
peptide: YCAGHIEEYMWKCL
notes: as for B28
B35: Phage-682 (peptide)
peptide: YCDGHAPEYVMKCL
notes: as for B28

Each binder was assayed against Anti-CD28 Fab (SEQ ID NOs: 696, 697) (assay: phage binding ELISA; biotinylated anti-CD28 Fab on neutravidin plate, clonal phage supernatant, anti-M13 HRP detection).
Target sequence in this assay (VH, as listed by the source, chain 1 of 2): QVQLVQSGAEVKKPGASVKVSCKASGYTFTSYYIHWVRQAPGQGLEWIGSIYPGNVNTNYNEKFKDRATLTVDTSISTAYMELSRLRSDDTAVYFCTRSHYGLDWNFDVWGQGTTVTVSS
Target sequence in this assay (VL, as listed by the source, chain 2 of 2): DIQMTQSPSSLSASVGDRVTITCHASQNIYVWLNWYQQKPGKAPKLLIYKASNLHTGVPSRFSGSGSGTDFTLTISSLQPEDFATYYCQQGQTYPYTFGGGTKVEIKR
Experimental: (§1) After panning, phage infected bacteria were plated out and colonies picked into 96 well blocks. Clonal phage was then amplified and separated from bacterial cells via centrifugation.
(§2) Clonal phage were harvested as crude supematants and screened via standard ELISAs. […] Prior to the addition of clonal phage, wells were incubated with blocking buffer and CD28 antigen or blocking buffer alone. Without washing or aspirating, clonal phage supematants were then added to the wells and incubated for a short time. Wells were then washed followed by detection of bound phage using a horse radish conjugated anti-M13 antibody. Clonal phage of interest were then sent for sequence analysis.

In the case of B1, the “Anti-CD28 Fab signal (phage binding ELISA)” value is reported as 1.96.

Molecular target: Anti-CD28 Fab (SEQ ID NOs: 696, 697)
Assay: as above
Remark: another data set of the same source
Target sequence in this assay (VH, as listed by the source, chain 1 of 2): as the sequence (VH, as listed by the source, chain 1 of 2) above
Target sequence in this assay (VL, as listed by the source, chain 2 of 2): as the sequence (VL, as listed by the source, chain 2 of 2) above
Experimental: as §1, §2

Point of comparison: B13, “Anti-CD28 Fab (SEQ ID NOs: 696, 697) signal” value 2.03. Against it:
- B2 — lower, 2.02
- B3 — lower, 2.01
- B4 — lower, 2.01
- B5 — lower, 2.02
- B6 — lower, 2.01
- B7 — the same, 2.03
- B8 — lower, 2.01
- B9 — lower, 2.02
- B10 — lower, 2.02
- B11 — the same, 2.03
- B12 — lower, 2.01
- B14 — the same, 2.03

These binders were tested against T1, Anti-CD28 Fab (SEQ ID NOs: 696, 697) (assay: phage binding ELISA; biotinylated anti-CD28 Fab on neutravidin plate, bound phage detected with anti-M13-HRP).
T1 construct: In the phage ELISA the Fab was biotinylated and captured on neutravidin coated plates
T1 sequence (VH, as listed by the source, chain 1 of 2): as the sequence (VH, as listed by the source, chain 1 of 2) above
T1 sequence (VL, as listed by the source, chain 2 of 2): as the sequence (VL, as listed by the source, chain 2 of 2) above
Experimental: as §1, §2

Point of comparison: B19, “Anti-CD28 Fab signal (phage binding ELISA)” value 2.04. Against it:
- B15 — the same, 2.04
- B16 — the same, 2.04
- B17 — higher, 2.05
- B18 — the same, 2.04
- B20 — higher, 2.05
- B21 — lower, 2.03
- B22 — lower, 2.03
- B23 — the same, 2.04
- B24 — higher, 2.05
- B25 — the same, 2.04
- B26 — higher, 2.05
- B27 — higher, 2.05

What follows are binders tested against T2, Anti-CD28 Fab (SEQ ID NOs: 696, 697) (assay: phage ELISA; biotinylated anti-CD28 Fab on neutravidin plate, clonal phage supernatant, anti-M13 HRP detection;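 also: crude supernatants of single phage clones picked after panning were screened for binding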).
T2 construct: Biotinylated and captured on neutravidin coated plates in the phage ELISA
T2 sequence (VH, as listed by the source, chain 1 of 2): as the sequence (VH, as listed by the source, chain 1 of 2) above
T2 sequence (VL, as listed by the source, chain 2 of 2): as the sequence (VL, as listed by the source, chain 2 of 2) above

Point of comparison: B33, “Anti-CD28 Fab signal (phage binding ELISA)” value 2.05. Against it:
- B28 — higher, 2.06
- B29 — higher, 2.06
- B30 — higher, 2.06
- B31 — higher, 2.06
- B32 — the same, 2.05
- B34 — the same, 2.05
- B35 — the same, 2.05

The binders below were run against T2, Anti-CD28 Fab (SEQ ID NOs: 696, 697) (assay: phage ELISA on plate-bound anti-CD28 Fab, wells pre-incubated with CD28 antigen as competitor).
Experimental: as §1, §2

Point of comparison: B33, “Anti-CD28 Fab signal in the presence of CD28 (phage binding ELISA)” value 0.07. Against it:
- B28 — the same, 0.07
- B29 — higher, 0.08
- B30 — the same, 0.07
- B31 — higher, 0.08
- B32 — the same, 0.07
- B34 — lower, 0.06
- B35 — higher, 0.1

Each binder was assayed against Anti-CD28 Fab (SEQ ID NOs: 696, 697) (assay: phage binding ELISA; captured anti-CD28 Fab pre-incubated with CD28 antigen as competitor, anti-M13 HRP detection).
Target sequence in this assay (VH, as listed by the source, chain 1 of 2): as the sequence (VH, as listed by the source, chain 1 of 2) above
Target sequence in this assay (VL, as listed by the source, chain 2 of 2): as the sequence (VL, as listed by the source, chain 2 of 2) above

Point of comparison: B2, “Anti-CD28 Fab signal in the presence of CD28” value 0.08. Against it:
- B3 — higher, 0.09
- B4 — higher, 0.09
- B5 — higher, 0.09
- B6 — lower, 0.06
- B7 — higher, 0.11
- B8 — higher, 0.09
- B9 — the same, 0.08
- B10 — lower, 0.06
- B11 — the same, 0.08
- B12 — lower, 0.06
- B13 — higher, 0.11
- B14 — lower, 0.07

These binders were tested against T1, Anti-CD28 Fab (SEQ ID NOs: 696, 697) (assay: phage binding ELISA on captured anti-CD28 Fab; competitor: CD28 antigen pre-incubated in the wells).
Experimental: as §1, §2

Point of comparison: B15, “Anti-CD28 Fab signal in the presence of CD28 (phage binding ELISA)” value 0.14. Against it:
- B16 — lower, 0.06
- B17 — lower, 0.07
- B18 — lower, 0.06
- B19 — lower, 0.06
- B20 — lower, 0.08
- B21 — lower, 0.09
- B22 — lower, 0.06
- B23 — lower, 0.07
- B24 — lower, 0.06
- B25 — lower, 0.08
- B26 — lower, 0.06
- B27 — lower, 0.08

Each binder was assayed against Anti-CD28 Fab (SEQ ID NOs: 696, 697) (assay: phage binding ELISA on anti-CD28 Fab; wells first incubated with CD28 antigen as competitor).
Target sequence in this assay (VH, as listed by the source, chain 1 of 2): as the sequence (VH, as listed by the source, chain 1 of 2) above
Target sequence in this assay (VL, as listed by the source, chain 2 of 2): as the sequence (VL, as listed by the source, chain 2 of 2) above
Experimental: as §1, §2

In the case of B1, the “Anti-CD28 Fab signal in the presence of CD28” value is reported as 0.08.

From US20260242478A1 (published 2026)
